Experimental data as given in article doi:10.1101/2022.05.03.490446 (bioRxiv, 2022).
Like-named read-outs stand apart in the source and are kept apart here.

Assays:
GroEL [1] = target: T1, GroEL (E. coli, UniProt P0A6F5 1-548); assay: atomic force microscopy
GroEL [2] = target: T1, GroEL; assay: SEC
GroEL [3] = target: T1, GroEL; assay: fluorescence polarisation + other fluorescence titration
GroEL [4] = target: T1, GroEL
GroEL [5] = target: T1, GroEL; assay: other fluorescence titration

T1 sequence (P0A6F5 whole entry): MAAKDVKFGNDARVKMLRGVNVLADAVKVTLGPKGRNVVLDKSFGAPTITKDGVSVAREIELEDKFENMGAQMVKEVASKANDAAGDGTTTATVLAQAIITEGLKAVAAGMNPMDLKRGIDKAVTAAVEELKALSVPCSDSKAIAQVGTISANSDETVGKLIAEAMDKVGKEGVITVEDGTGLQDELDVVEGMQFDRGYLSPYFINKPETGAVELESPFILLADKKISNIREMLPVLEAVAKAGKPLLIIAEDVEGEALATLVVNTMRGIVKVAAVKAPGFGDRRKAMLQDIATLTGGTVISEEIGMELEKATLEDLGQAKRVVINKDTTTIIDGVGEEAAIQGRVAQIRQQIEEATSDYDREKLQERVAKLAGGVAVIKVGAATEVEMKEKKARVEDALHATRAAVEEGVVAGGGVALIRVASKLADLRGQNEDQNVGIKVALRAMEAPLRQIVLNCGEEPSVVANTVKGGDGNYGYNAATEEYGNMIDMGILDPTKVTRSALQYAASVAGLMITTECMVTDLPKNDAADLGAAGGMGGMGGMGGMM

## CnoX (from UniProt P77395 1-284) (natural protein)
GroEL [1]
  specific binding force: 175 pN
GroEL [2]
  stoichiometry N (GroEL:CnoX molar ratio): 14

## fluorescein-labeled CnoX (from UniProt P77395 1-284) (natural protein)
GroEL [3]
  Kd: 310 nM
GroEL [4]
  Kd: 350 nM

B1: GroES (natural protein)
chain: MNIRPLHDRVIVKRKEVETKSAGGIVLTGSAAAKSTRGEVLAVGNGRILENGEVKPLDVKVGDIVIFNDGYGVKSEKIDNEEVLIMSESDILAIVEA
GroEL [5]
  Ki: 47 nM
